Measured values as given in US20210063414A1, “METHODS FOR PREVENTING AND/OR TREATING BONE LOSS CONDITIONS BY MODULATING IRISIN” (Dana-Farber Cancer Institute, Inc., priority 2018, published 2021).

Assays:
[1] = molecular target: T1, MLO-Y4 cell surface proteins (Mus musculus, UniProt Q3U2P1); test: Crosslinking/co-immunoprecipitation/mass spectrometry (TMT quantitative proteomics) to identify irisin receptors; assay type: binding; settings: co-precipitated protein Sec24a (SC24A_MOUSE)
T1 construct: endogenous in cells; host or cells: MLO-Y4
T1 sequence (Q3U2P1 1-1090): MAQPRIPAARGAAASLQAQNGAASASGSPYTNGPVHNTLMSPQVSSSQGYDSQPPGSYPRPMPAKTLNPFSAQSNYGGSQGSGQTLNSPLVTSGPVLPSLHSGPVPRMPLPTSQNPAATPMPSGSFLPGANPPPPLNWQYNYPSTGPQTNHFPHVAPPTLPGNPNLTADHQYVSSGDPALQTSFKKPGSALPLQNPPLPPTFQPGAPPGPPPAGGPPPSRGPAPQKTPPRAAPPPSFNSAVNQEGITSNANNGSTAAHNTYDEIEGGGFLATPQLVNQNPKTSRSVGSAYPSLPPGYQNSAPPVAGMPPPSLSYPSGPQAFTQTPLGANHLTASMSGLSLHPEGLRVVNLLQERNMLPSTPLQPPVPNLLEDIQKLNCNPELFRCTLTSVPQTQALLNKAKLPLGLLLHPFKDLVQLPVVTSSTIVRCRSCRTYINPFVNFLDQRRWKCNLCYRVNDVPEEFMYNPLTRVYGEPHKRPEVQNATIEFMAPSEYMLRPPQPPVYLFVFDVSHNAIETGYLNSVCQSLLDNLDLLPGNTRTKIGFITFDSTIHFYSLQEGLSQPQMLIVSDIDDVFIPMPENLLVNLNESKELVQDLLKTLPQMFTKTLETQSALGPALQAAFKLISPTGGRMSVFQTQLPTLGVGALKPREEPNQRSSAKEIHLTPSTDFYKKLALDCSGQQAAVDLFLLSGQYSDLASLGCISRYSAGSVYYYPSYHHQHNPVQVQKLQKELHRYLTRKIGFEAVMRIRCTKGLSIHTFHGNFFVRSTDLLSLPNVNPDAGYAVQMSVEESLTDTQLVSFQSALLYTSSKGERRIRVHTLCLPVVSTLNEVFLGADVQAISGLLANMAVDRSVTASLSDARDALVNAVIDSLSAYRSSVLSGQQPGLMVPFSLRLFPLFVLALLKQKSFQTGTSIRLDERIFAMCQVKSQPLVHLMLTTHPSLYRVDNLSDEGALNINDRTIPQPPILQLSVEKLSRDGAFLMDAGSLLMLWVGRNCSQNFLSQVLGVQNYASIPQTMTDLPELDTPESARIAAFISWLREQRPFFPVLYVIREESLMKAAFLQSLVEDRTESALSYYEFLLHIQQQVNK
Procedure, shortened: (§1)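 Mouse MLO-Y4 cells were switched to serum-free FreeStyle medium for 4 h, chilled, then exposed to 10 nM His-tagged irisin (or adipsin as control) for 20 min. Cells were crosslinked with 1.5 mM DTSSP (30 min, ice), and bound proteins were pulled down on Ni-NTA and eluted with 250 mM imidazole. Eluates were separated by SDS-PAGE, trypsin-digested in gel, TMT 6-plex labelled and quantified by MS3-based LC-MS/MS on an Orbitrap Fusion Lumos.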

[2] = molecular target: T2, MLO-Y4 cell surface proteins (Mus musculus, UniProt C0HKE1); test: as above; assay type: binding; settings: co-precipitated protein Hist1h2ab (H2A1_MOUSE)
T2 construct: endogenous in cells; host or cells: MLO-Y4
Procedure, shortened: as §1

B1: irisin: secreted cleaved form of FNDC5; recombinant human/mouse irisin with C-terminal his tag produced in HEK293 cells (protein)
chain: DSPSAPVNVTVRHLKANSAVVSWDVLEDEVVIGFAISQQKKDVRMLRFIQEVNTTTRSCALWDLEEDTEYIVHVQAISIQGQSPASEPVLFKTPREAEKMASKNKDEVTMKE
modifications: left off: small tags and cut ends
notes: secreted cleaved form of FNDC5; recombinant human/mouse irisin with C-terminal his tag produced in HEK293 cells
[1]
  TMT signal-to-noise ratio: 29.3088
  irisin/adipsin TMT signal-to-noise ratio: 0.246
[2]
  TMT signal-to-noise ratio: 119.978
  irisin/adipsin TMT signal-to-noise ratio: 0.438
